Patent US20220242962A1 (APTEVO RESEARCH AND DEVELOPMENT, published 2022)
Where a chain is given by its changes, count along the chain named. Names and notes keep the numbering of the source.

B1: FXX01066 (bispecific antibody)
chain: EVQLVQSGAEVKKPGASVKVSCKASGYTFTSYWMNWVRQAPGQGLEWMGNIYPSGGSTNYAQKFQGRVTMTVDTSTSTVYMELSSLRSEDTAVYYCASFSDGYYAYAMDYWGQGTLVTVSSGGGGSGGGGSGGGGSGGGGSEIVMTQSPATLSLSPGERATLSCRASQSVSSYLNWYQQKPGQAPRLLIYYASRRHTGIPARFSGSGSGTDFTLTISSLQPEDFAVYYCQQGYNLPYTFGQGTKVEIKEPKSSDKTHTCPPCPAPPAAAPSVFLFPPKPKDTLMISRTPEVTCVVVDVSHEDPEVKFNWYVDGVEVHNAKTKPREEQYNSTYRVVSVLTVLHQDWLNGKEYKCAVSNKALPAPIEKTISKAKGQPREPQVYTLPPSRDELTKNQVSLTCLVKGFYPSDIAVEWESNGQPENNYKTTPPVLDSDGSFFLYSKLTVDKSRWQQGNVFSCSVMHEALHNHYTQKSLSLSPGGGGSPSSYVLTQPPSVSVAPGQTARITCGGNNIGSKSVNWFQQKPGQAPVLVVYDDSGRPSGIPERFSGSTSGNTATLTISRVEAGDEADYYCQVWDSSSDHVVFGGGTKLTVLGGGGSGGGGSGGGGSGGGGSQVQLVESGGGVVQPGRSLRLSCAASGFTLSYYGMHWVRQAPGKGLEWVAAISHDGSDKYYADSVKGRFTISRDNSKNTLYLQMNSLRAEDTAVYYCSNDQFDPWGQGTLVTVSSR
notes: ADAPTIR scFv-Fc-scFv, anti-4-1BB (VH-VL) N-terminal, anti-OX40 C-terminal, PAA (del) Fc; also called FX01066
B2: FXX01101 (bispecific antibody)
chain: B1 chain with T690R
notes: ADAPTIR anti-4-1BB (HL) x anti-OX40 with T86R; PAA (del) Fc; also called FX01101
B3: FXX01102 (bispecific antibody)
chain: B1 chain with Q500K, T690R
notes: ADAPTIR anti-4-1BB (HL) x anti-OX40 with Q17K and T86R; PAA (del) Fc; also called FX01102
B4: FXX01111 (bispecific antibody)
chain: B1 chain with I541V, E543N
notes: ADAPTIR anti-4-1BB x anti-OX40, pI variant; PAA (del) Fc
B5: FXX01115 (bispecific antibody)
chain: B1 chain with I541V, E543N, T690R
notes: as for B4
B6: FXX01119 (bispecific antibody)
chain: B1 chain with Q500K, I541V, E543N, T690R
notes: as for B4

Target: T1, Cyno 4-1BB ECD-AFH (cynomolgus monkey)
T1 construct: entry includes the tags; also called FOB004; Cyno CD137 ECD-avi-flag-his
T1 chain: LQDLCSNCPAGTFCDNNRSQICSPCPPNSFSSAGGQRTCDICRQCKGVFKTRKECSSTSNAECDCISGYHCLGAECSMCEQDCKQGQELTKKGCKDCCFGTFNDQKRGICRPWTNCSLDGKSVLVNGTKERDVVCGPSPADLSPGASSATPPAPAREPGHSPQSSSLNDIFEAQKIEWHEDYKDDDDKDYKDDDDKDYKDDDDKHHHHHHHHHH
Assay: SPR (Biacore 8K), construct captured, monovalent ECD
Description: (§1) Mouse anti-human IgG (GE, BR-1008-39) at 25 μg/ml in 10 mM sodium acetate pH 5.0 was immobilized at a density of ˜10,000 response units (RU) onto each flow cell of a CM5 research-grade sensor chip (GE) by standard amine coupling chemistry. Each binding protein at approximately 100 nM in HBS-EP+ with 0.2% BSA buffer was captured in a flow cell with the immobilized anti-human IgG at a flow rate of 10 μL/min for 20 seconds, leaving one flow cell surface unmodified as the reference. Using a single-cycle kinetics mode, five different concentrations of ECD were sequentially injected through each flow cell at 30 μL/min for 300 seconds followed by a 600 second dissociation period. Regeneration was achieved by injection of 3 M MgCl₂ at a flow rate of 30 μL/min for 30 seconds followed by HBS-EP+ with 0.2% BSA buffer stabilization for 1 min.
(§2) Sensorgrams obtained from kinetic SPR measurements were analyzed by the double subtraction method. The signal from the reference flow cell was subtracted from the analyte binding response obtained from flow cells with immobilized or captured ligands. Buffer reference responses were then averaged from multiple injections. The averaged buffer reference responses were then subtracted from analyte binding responses, and the final double-referenced data were analyzed with Biacore T200 Evaluation software (2.0, GE), globally fitting data to derive kinetic parameters. All sensorgrams were fitted using a simple one-to-one binding model.
(§3) Using the BIACORE 8K SPR system, the affinity of these constructs for human and cyno 4-1BB, and human and cyno OX40 ECD, were determined using the methods described above. Monovalent binding affinity was determined by capturing the ADAPTIR™ bispecific construct on the chip and injecting monovalent ECD of the target at multiple concentrations.

Binder	Kd	koff	kon
B1	92 nM	0.0092 s⁻¹	100000 M⁻¹ s⁻¹
B2	76 nM	0.0077 s⁻¹	100000 M⁻¹ s⁻¹
B3	75 nM	0.0074 s⁻¹	98000 M⁻¹ s⁻¹
B4	81 nM	0.008 s⁻¹	99000 M⁻¹ s⁻¹
B5	72 nM	0.0074 s⁻¹	100000 M⁻¹ s⁻¹
B6	79 nM	0.0075 s⁻¹	95000 M⁻¹ s⁻¹

These binders were tested against T2, Human 4-1BB ECD-AFH (human) in the same assay as above.
T2 construct: entry includes the tags; also called FOB003; HUMAN CD137 ECD-AVI-FLAG-HIS
Description: as §1, §2, §3

Binder	Kd	koff	kon
B1	16 nM	0.0043 s⁻¹	270000 M⁻¹ s⁻¹
B2	17 nM	0.0046 s⁻¹	270000 M⁻¹ s⁻¹
B3	16 nM	0.0047 s⁻¹	290000 M⁻¹ s⁻¹
B4	17 nM	0.0045 s⁻¹	270000 M⁻¹ s⁻¹
B5	16 nM	0.0041 s⁻¹	260000 M⁻¹ s⁻¹
B6	18 nM	0.0046 s⁻¹	260000 M⁻¹ s⁻¹

Target: T3, Human OX40 ECD-AFH (human)
T3 construct: ECD'; entry includes the C-terminal tags; also called OXF003; Human OX40 ECD-avi-flag-his
T3 chain: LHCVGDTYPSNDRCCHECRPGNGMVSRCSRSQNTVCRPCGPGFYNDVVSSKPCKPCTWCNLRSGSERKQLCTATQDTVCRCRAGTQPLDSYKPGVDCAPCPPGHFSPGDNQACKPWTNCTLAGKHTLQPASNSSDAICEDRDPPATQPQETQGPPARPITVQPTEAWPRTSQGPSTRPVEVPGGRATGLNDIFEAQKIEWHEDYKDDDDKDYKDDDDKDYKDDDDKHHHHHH
Assay: as above
Description: as §1, §2, §3

Binder	Kd	koff	kon
B1	< 1 nM	0.00027 s⁻¹	1.1e+06 M⁻¹ s⁻¹
B2	< 1 nM	0.00029 s⁻¹	980000 M⁻¹ s⁻¹
B3	< 1 nM	0.00025 s⁻¹	1e+06 M⁻¹ s⁻¹
B4	< 1 nM	0.00038 s⁻¹	930000 M⁻¹ s⁻¹
B5	< 1 nM	0.0003 s⁻¹	980000 M⁻¹ s⁻¹
B6	0.3 nM	0.00031 s⁻¹	920000 M⁻¹ s⁻¹

Target: T4, Cyno OX40-AFH (cynomolgus monkey)
T4 construct: entry includes the tags; also called OXF005; cyno OX40 ECD
T4 chain: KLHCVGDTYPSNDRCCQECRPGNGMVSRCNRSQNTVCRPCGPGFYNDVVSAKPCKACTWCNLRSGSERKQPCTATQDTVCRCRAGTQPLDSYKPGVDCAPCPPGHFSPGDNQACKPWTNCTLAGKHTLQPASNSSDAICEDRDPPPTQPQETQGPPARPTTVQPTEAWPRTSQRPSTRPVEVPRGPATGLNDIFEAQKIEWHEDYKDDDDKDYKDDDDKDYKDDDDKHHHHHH
Assay: as above
Description: as §1, §2, §3

Binder	Kd	koff	kon
B1	< 1 nM	0.00019 s⁻¹	1.5e+06 M⁻¹ s⁻¹
B2	< 1 nM	0.00027 s⁻¹	1.1e+06 M⁻¹ s⁻¹
B3	< 1 nM	0.00023 s⁻¹	1.1e+06 M⁻¹ s⁻¹
B4	< 1 nM	0.00029 s⁻¹	1.1e+06 M⁻¹ s⁻¹
B5	< 1 nM	0.00021 s⁻¹	1.1e+06 M⁻¹ s⁻¹
B6	0.2 nM	0.00023 s⁻¹	1e+06 M⁻¹ s⁻¹

The binders below were run against T5, Fc gamma receptor RIIA R167 (human, UniProt P12318 36-218) (assay: SPR, construct immobilized, receptor injected at 2 uM).
T5 construct: soluble SPR analyte
T5 sequence (looked up): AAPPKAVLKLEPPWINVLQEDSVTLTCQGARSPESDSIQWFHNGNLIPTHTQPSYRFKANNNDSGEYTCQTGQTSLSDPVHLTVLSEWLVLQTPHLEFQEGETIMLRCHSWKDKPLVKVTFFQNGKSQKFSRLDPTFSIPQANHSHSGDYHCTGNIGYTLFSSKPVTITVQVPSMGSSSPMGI
Description: Fcγ receptor binding to bispecific proteins was measured by Surface Plasmon Resonance on a Biacore 8K instrument at room temperature. Bispecific proteins with modified Fc regions to reduce binding to Fcγ receptors were directly immobilized on the surface of a CM5 sensor chip to a surface density of 4000 RU. A bispecific ADAPTIR™ protein with a wild type Fc was similarly immobilized to the surface as a positive control and used as a comparator to evaluate the reduction in binding resulting from changes incorporated into the Fc region amino acid sequence. Fcγ receptors (purchased from R&D Systems) were diluted to either 100 nM (FcγRI) or 2 μM (all other Fcγ receptors) in HBS-EP+ buffer before injecting over the surface of the prepared sensor chip at 30 μL/min for 60 seconds. Maximum RU values during association phase of each injection were used to compare the extent of binding of the modified Fc to wild type value and are reported in Table 17 below.

Binder	Max RU value during association
B1	92 RU
B2	94 RU
B3	88 RU
B4	86 RU
B5	89 RU
B6	103 RU

Target: T6, Full-length Cyno 4-1BB (cynomolgus monkey, UniProt Q07011 24-255 (human entry))
T6 construct: on Jurkat or CHO cells; also called FOB006; cynomolgus 4-1BB
T6 chain: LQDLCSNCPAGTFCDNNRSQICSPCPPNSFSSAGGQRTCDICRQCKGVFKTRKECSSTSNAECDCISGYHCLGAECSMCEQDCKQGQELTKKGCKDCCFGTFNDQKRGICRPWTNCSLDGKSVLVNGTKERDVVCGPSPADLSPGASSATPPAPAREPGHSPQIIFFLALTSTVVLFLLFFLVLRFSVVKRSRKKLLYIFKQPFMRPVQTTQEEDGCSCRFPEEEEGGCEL
Assay: flow cytometry on Jurkat cells transfected with cynomolgus 4-1BB, goat anti-human Fc secondary antibody, MFI (Mean)
Description: Serial dilutions of ADAPTIR™ constructs were incubated with transfected target cells and subsequently labelled with a fluorescently-conjugated goat-a-human Fc secondary antibody. […] (See Example 25.)

Binder	EC50 (read off the curve)
B1	~0.4 nM
B2	~0.3 nM
B3	~0.3 nM
B4	~0.3 nM
B5	~0.3 nM
B6	~0.3 nM
